Source: the supplement of paper PMC10567573

B1: PLAGL1 (parent)
chain: EKPPSGTKEKKHQCDHCERCFYTR

Variants of: B1
Assay: protein stability index of a GFP-peptide fusion (GPS, HEK-293T) (PSI 1-6); higher = more stable
Details: c terminus: a fixed tail appended
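Also: lentivirally expressed fusions sorted by FACS into six bins by GFP to DsRed ratio, PSI derived from sequencing read proportions per bin multiplied by bin number.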

Row | Variant | protein stability index
1 | C14V | 4.55
2 | C14E | 4.84
3 | C14W | 3.4
4 | C14R | 3.97
5 | C14I | 3.73
6 | C14Q | 4.06
7 | C14M | 4.11
8 | C14H | 3.57
9 | C14G | 3.96
10 | C14T | 3.8
11 | C14F | 3.81
12 | C14A | 3.97
13 | C14N | 3.71
14 | C14D | 4.14
15 | C14L | 4.19
16 | C14P | 4.03
17 | C14S | 4.02
18 | C14K | 4.08
19 | C14Y | 3.56
20 | K10S | 3.96
21 | K10V | 3.9

Row | Variant | protein stability index
22 | K10H | 4.05
23 | K10D | 4.05
24 | K10W | 3.55
25 | K10P | 4.16
26 | K10M | 3.76
27 | K10F | 3.42
28 | K10N | 3.76
29 | K10I | 3.77
30 | K10T | 3.78
31 | K10Y | 3.81
32 | K10R | 3.43
33 | K10L | 4.04
34 | K10A | 3.87
35 | K10E | 4.42
36 | K10Q | 3.53
37 | K10C | 4.3
38 | K10G | 3.91
39 | D15S | 3.29
40 | D15P | 2.25
41 | D15T | 3.37
42 | D15N | 3.23

Row | Variant | protein stability index
43 | D15Q | 2.7
44 | D15E | 3.18
45 | D15R | 2.2
46 | D15V | 2.68
47 | D15G | 4.38
48 | D15A | 3.75
49 | D15F | 2.79
50 | D15W | 3.15
51 | D15Y | 2.97
52 | D15K | 3.33
53 | D15L | 2.91
54 | D15I | 2.55
55 | D15H | 2.9
56 | D15M | 2.63
57 | Q13V | 3.17
58 | Q13K | 3.67
59 | Q13D | 4.33
60 | Q13S | 3.25
61 | Q13Y | 2.73
62 | Q13T | 3.29
63 | Q13H | 3.28

Row | Variant | protein stability index
64 | Q13L | 3.26
65 | Q13C | 3.19
66 | Q13M | 3.55
67 | Q13P | 2.52
68 | Q13F | 3.2
69 | Q13E | 4.31
70 | Q13W | 2.8
71 | Q13N | 3.74
72 | Q13A | 3.4
73 | Q13I | 3.21
74 | Q13G | 2.34
75 | Q13R | 2.77
76 | C17S | 3.63
77 | C17N | 3.76
78 | C17T | 3.48
79 | C17Y | 3.15
80 | C17I | 3.49
81 | C17V | 4.05
82 | C17K | 4.07
83 | C17R | 3.15
